Data reported in publication PMC12607630, “ZapC crosslinks FtsZ filaments through a dual-binding mechanism modulated by the intrinsically disordered linker of FtsZ in Escherichia coli” (mBio, 2025).
Several values for one entry are separate records, joined by “and”; a condition that tells them apart may be missing. Equal entries are not always repeated.

What was measured:
Assay in all cases: BLI; 6×His-ZapC or its mutants (0.5 µM) loaded on Ni-NTA biosensors, untagged FtsZ or its variants in solution; Octet-Red96, 30°C, 1× Pol buffer (50 mM HEPES-NaOH pH 6.8, 50 mM KCl, 10 mM MgCl2); apparent Kd from the signal at the end of association against concentration, one-site fit; three repeats with mean (X) and SD
Settings in all cases: both partners purified
[1] = molecular target: T1, FtsZ 1-316 (untagged) (Escherichia coli, UniProt P0A9A6 1-316)
T1 construct: lacks the entire CTL and the CTP; source: E. coli BL21(DE3), plasmid pLY343, purified (Ni-NTA); 6×His-SUMO tag removed with Ulp1; not shown: 6×His-SUMO, N-terminal, cleaved
T1 sequence (looked up): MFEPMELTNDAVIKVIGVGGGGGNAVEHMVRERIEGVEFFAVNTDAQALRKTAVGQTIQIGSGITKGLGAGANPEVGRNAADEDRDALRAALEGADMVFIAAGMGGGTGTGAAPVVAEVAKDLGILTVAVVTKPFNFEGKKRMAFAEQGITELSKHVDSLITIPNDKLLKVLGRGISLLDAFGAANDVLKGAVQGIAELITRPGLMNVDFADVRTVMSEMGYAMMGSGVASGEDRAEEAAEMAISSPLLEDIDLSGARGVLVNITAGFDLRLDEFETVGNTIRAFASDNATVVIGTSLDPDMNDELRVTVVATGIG

[2] = molecular target: T2, FtsZ (untagged, wild type) (Escherichia coli, UniProt P0A9A6 1-383)
T2 construct: also called wild-type FtsZ; source: E. coli BL21(DE3), plasmid pLY17, purified (Ni-NTA); 6×His-SUMO tag removed with Ulp1; not shown: 6×His-SUMO, N-terminal, cleaved
T2 sequence (looked up): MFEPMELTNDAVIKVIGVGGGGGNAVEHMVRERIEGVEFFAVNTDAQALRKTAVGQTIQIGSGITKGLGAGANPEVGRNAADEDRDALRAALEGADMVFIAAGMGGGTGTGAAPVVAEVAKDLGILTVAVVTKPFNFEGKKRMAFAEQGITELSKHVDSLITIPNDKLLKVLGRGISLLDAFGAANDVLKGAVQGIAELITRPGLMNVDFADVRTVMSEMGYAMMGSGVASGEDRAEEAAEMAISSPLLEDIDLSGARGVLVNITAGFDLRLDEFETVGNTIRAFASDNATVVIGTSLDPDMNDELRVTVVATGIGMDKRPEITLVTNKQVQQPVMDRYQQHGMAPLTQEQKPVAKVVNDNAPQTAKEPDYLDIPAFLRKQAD

[3] = molecular target: T3, FtsZ D360Y (untagged) (Escherichia coli, UniProt P0A9A6 1-383, D360Y)
T3 construct: FtsZ of Escherichia coli with D360Y (CTL); Derivative of pLY17 by site-directed mutagenesis; source: E. coli BL21(DE3), plasmid pLY339, purified (Ni-NTA); 6×His-SUMO tag removed with Ulp1; not shown: 6×His-SUMO, N-terminal, cleaved
T3 sequence (looked up): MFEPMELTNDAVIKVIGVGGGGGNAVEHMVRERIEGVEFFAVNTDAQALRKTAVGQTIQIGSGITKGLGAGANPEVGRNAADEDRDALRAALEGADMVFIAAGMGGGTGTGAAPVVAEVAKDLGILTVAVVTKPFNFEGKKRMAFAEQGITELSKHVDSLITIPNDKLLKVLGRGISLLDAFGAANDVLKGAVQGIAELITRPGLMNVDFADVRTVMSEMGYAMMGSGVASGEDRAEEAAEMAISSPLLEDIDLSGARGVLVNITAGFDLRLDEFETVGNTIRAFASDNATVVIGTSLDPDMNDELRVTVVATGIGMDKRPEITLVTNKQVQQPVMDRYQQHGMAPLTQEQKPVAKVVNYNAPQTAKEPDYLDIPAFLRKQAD

[4] = molecular target: T4, FtsZ 1-370 (untagged) (Escherichia coli, UniProt P0A9A6 1-370)
T4 construct: FtsZ of Escherichia coli, residues 1-370; lacks the CTP; Primers BsaI-out-F and 370XbaI-out-R; forward primer starts at codon 2; source: E. coli BL21(DE3), plasmid pLY341, purified (Ni-NTA); 6×His-SUMO tag removed with Ulp1; not shown: 6×His-SUMO, N-terminal, cleaved
T4 sequence (looked up): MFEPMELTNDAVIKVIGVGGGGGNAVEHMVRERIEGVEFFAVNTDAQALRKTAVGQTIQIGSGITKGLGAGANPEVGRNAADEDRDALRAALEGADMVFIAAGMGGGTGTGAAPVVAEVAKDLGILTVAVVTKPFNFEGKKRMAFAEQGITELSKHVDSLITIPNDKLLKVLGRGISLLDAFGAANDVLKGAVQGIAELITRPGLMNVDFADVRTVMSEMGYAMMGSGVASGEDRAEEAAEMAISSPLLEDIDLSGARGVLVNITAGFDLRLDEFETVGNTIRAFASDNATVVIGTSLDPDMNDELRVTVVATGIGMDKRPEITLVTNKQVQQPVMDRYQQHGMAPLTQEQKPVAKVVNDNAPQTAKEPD

Kd [1]: 1540 nM and 1910 nM and 1290 nM and 1580 nM | Kd [2]: 377 nM and 395 nM and 488 nM and 420 nM | Kd [3]: 573 nM and 823 nM and 735 nM and 710 nM | Kd [4]: 1540 nM and 1190 nM and 1260 nM and 1330 nM
B1: 6×His-ZapC (natural protein)
chain: not shown
notes: ZapC, FtsZ-associated protein of Escherichia coli; Construction of pSD323 is not described; also called His-tagged ZapC; source: E. coli, plasmid pSD323 (pQE80, Plac::6×His-ZapC), purified (Ni-NTA); not shown: His6, N-terminal, kept
